Our source for the abundance fitness values is the Human Domainome abundance scans (Beltran et al. 2025).

± gives the uncertainty stated by the source.

This data set can be described thus: abundance fitness (aPCA) (normalised: wild type 0, dead -1); higher = more abundant; growth selection in yeast, the domain comes from the species named. Particulars: Saccharomyces cerevisiae (strain ATCC 204508 / S288c).
For the substance “E3 ubiquitin-protein ligase RSP5 G331N, P39940”, the abundance fitness is -0.01 ± 0.1.

With “E3 ubiquitin-protein ligase RSP5 G331P, P39940”, the abundance fitness is -0.249 ± 0.07.

With “E3 ubiquitin-protein ligase RSP5 G331R, P39940”, the abundance fitness is -0.17 ± 0.041.

Consider “E3 ubiquitin-protein ligase RSP5 G331S, P39940”, for which the abundance fitness is -0.186 ± 0.046.

For “E3 ubiquitin-protein ligase RSP5 G331T, P39940”, the abundance fitness was -0.09 ± 0.046.

Turning to “E3 ubiquitin-protein ligase RSP5 G331V, P39940”, the abundance fitness is -0.083 ± 0.047.

In the case of “E3 ubiquitin-protein ligase RSP5 G331W, P39940”, the abundance fitness was -0.329 ± 0.049.

In the case of “E3 ubiquitin-protein ligase RSP5 G331Y, P39940”, the abundance fitness is -0.202 ± 0.17.

Consider “E3 ubiquitin-protein ligase RSP5 G336A, P39940”, for which the abundance fitness was -0.447 ± 0.05.

Regarding “E3 ubiquitin-protein ligase RSP5 G336C, P39940”, the abundance fitness is -0.427 ± 0.063.

Consider “E3 ubiquitin-protein ligase RSP5 G336D, P39940”, for which the abundance fitness is -0.368 ± 0.07.

As to “E3 ubiquitin-protein ligase RSP5 G336E, P39940”, the abundance fitness is -0.562 ± 0.059.

On to “E3 ubiquitin-protein ligase RSP5 G336F, P39940”, for which the abundance fitness was -0.544 ± 0.067.

As to “E3 ubiquitin-protein ligase RSP5 G336H, P39940”, the abundance fitness was -0.157 ± 0.2.

Turning to “E3 ubiquitin-protein ligase RSP5 G336I, P39940”, the abundance fitness was -1.3 ± 0.13.

For the substance “E3 ubiquitin-protein ligase RSP5 G336K, P39940”, the abundance fitness was -0.302 ± 0.062.

In the case of “E3 ubiquitin-protein ligase RSP5 G336L, P39940”, the abundance fitness was -0.575 ± 0.062.

As to “E3 ubiquitin-protein ligase RSP5 G336M, P39940”, the abundance fitness is -0.531 ± 0.1.

In the case of “E3 ubiquitin-protein ligase RSP5 G336P, P39940”, the abundance fitness is -0.755 ± 0.057.

Turning to “E3 ubiquitin-protein ligase RSP5 G336Q, P39940”, the abundance fitness is -0.271 ± 0.079.

Turning to “E3 ubiquitin-protein ligase RSP5 G336S, P39940”, the abundance fitness is -0.471 ± 0.061.

For the substance “E3 ubiquitin-protein ligase RSP5 G336T, P39940”, the abundance fitness is -0.461 ± 0.072.

In the case of “E3 ubiquitin-protein ligase RSP5 G336V, P39940”, the abundance fitness is -1.11 ± 0.061.

As to “E3 ubiquitin-protein ligase RSP5 G336W, P39940”, the abundance fitness was -0.558 ± 0.054.

On to “E3 ubiquitin-protein ligase RSP5 G336Y, P39940”, for which the abundance fitness was -0.815 ± 0.19.

Consider “E3 ubiquitin-protein ligase RSP5 G345C, P39940”, for which the abundance fitness was -0.364 ± 0.06.

As for “E3 ubiquitin-protein ligase RSP5 G345D, P39940”, the abundance fitness is -0.271 ± 0.26.

For the substance “E3 ubiquitin-protein ligase RSP5 G345E, P39940”, the abundance fitness is -0.312 ± 0.057.

As to “E3 ubiquitin-protein ligase RSP5 G345K, P39940”, the abundance fitness came out at 0.148 ± 0.11.

For “E3 ubiquitin-protein ligase RSP5 G345L, P39940”, the abundance fitness is -0.303 ± 0.062.

For the substance “E3 ubiquitin-protein ligase RSP5 G345M, P39940”, the abundance fitness is -0.14 ± 0.074.

Take “E3 ubiquitin-protein ligase RSP5 G345P, P39940”: the abundance fitness is -0.717 ± 0.084.

Regarding “E3 ubiquitin-protein ligase RSP5 G345Q, P39940”, the abundance fitness was -0.202 ± 0.08.

On to “E3 ubiquitin-protein ligase RSP5 G345R, P39940”, for which the abundance fitness was -0.219 ± 0.047.

As for “E3 ubiquitin-protein ligase RSP5 G345T, P39940”, the abundance fitness is -0.665 ± 0.069.

As to “E3 ubiquitin-protein ligase RSP5 G345W, P39940”, the abundance fitness is -0.466 ± 0.049.

Take “E3 ubiquitin-protein ligase RSP5 H352A, P39940”: the abundance fitness is -0.236 ± 0.045.

As for “E3 ubiquitin-protein ligase RSP5 H352C, P39940”, the abundance fitness was -0.384 ± 0.067.

On to “E3 ubiquitin-protein ligase RSP5 H352D, P39940”, for which the abundance fitness was -0.325 ± 0.099.

For the substance “E3 ubiquitin-protein ligase RSP5 H352E, P39940”, the abundance fitness was -0.296 ± 0.056.

Regarding “E3 ubiquitin-protein ligase RSP5 H352G, P39940”, the abundance fitness is -0.229 ± 0.04.

Consider “E3 ubiquitin-protein ligase RSP5 H352I, P39940”, for which the abundance fitness is -0.046 ± 0.16.

Take “E3 ubiquitin-protein ligase RSP5 H352K, P39940”: the abundance fitness is -0.176 ± 0.074.

“E3 ubiquitin-protein ligase RSP5 H352L, P39940”: the abundance fitness was -0.235 ± 0.057.

As to “E3 ubiquitin-protein ligase RSP5 H352M, P39940”, the abundance fitness was -0.104 ± 0.053.

Take “E3 ubiquitin-protein ligase RSP5 H352N, P39940”: the abundance fitness was determined as 0.049 ± 0.085.

Consider “E3 ubiquitin-protein ligase RSP5 H352P, P39940”, for which the abundance fitness was -0.636 ± 0.05.

In the case of “E3 ubiquitin-protein ligase RSP5 H352Q, P39940”, the abundance fitness is -0.19 ± 0.086.

With “E3 ubiquitin-protein ligase RSP5 H352R, P39940”, the abundance fitness was -0.253 ± 0.046.

As for “E3 ubiquitin-protein ligase RSP5 H352S, P39940”, the abundance fitness was -0.297 ± 0.051.

Regarding “E3 ubiquitin-protein ligase RSP5 H352T, P39940”, the abundance fitness is -0.197 ± 0.055.

As for “E3 ubiquitin-protein ligase RSP5 H352V, P39940”, the abundance fitness is -0.361 ± 0.056.

As to “E3 ubiquitin-protein ligase RSP5 H352W, P39940”, the abundance fitness was -0.223 ± 0.049.

Turning to “E3 ubiquitin-protein ligase RSP5 H352Y, P39940”, the abundance fitness was -0.176 ± 0.12.

In turn, “E3 ubiquitin-protein ligase RSP5 L330A, P39940” displayed an abundance fitness of 0.005 ± 0.046.

The substance “E3 ubiquitin-protein ligase RSP5 L330C, P39940” returned an abundance fitness of 0.05 ± 0.062.

With “E3 ubiquitin-protein ligase RSP5 L330D, P39940”, the abundance fitness stood at 0.02 ± 0.065.

Take “E3 ubiquitin-protein ligase RSP5 L330E, P39940”: the abundance fitness worked out at 0.013 ± 0.063.

Regarding “E3 ubiquitin-protein ligase RSP5 L330F, P39940”, the abundance fitness was -0.014 ± 0.071.

Turning to “E3 ubiquitin-protein ligase RSP5 L330G, P39940”, the abundance fitness is -0.087 ± 0.043.

As to “E3 ubiquitin-protein ligase RSP5 L330H, P39940”, the abundance fitness was -0.048 ± 0.067.

Consider “E3 ubiquitin-protein ligase RSP5 L330I, P39940”, for which the abundance fitness is 0.007 ± 0.062.

In the case of “E3 ubiquitin-protein ligase RSP5 L330K, P39940”, the abundance fitness was -0.023 ± 0.056.

On to “E3 ubiquitin-protein ligase RSP5 L330M, P39940”, for which the abundance fitness is 0.089 ± 0.073.

Substance “E3 ubiquitin-protein ligase RSP5 L330N, P39940” displayed an abundance fitness of 0.054 ± 0.08.

Turning to “E3 ubiquitin-protein ligase RSP5 L330P, P39940”, the abundance fitness was -0.058 ± 0.069.
